Reference: the supplement of paper PMC10201428
± gives the standard deviation of the averaged measurements.

Experiments:
[1] = tested on: VchCAST RNA-guided transposition machinery (E. coli BL21(DE3) host, lacZ target); test: relative integration efficiency (T-LR orientation) vs wild-type transposon end (log2 (normalized fold change)); transposon end mutated: right end (5 bp flank + 75 bp right end); higher = more efficient transposition
Method in brief: (§1)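 In E. coli BL21(DE3), a T7-driven effector plasmid was paired with a pUC57 mini-transposon donor containing 1549 left-end or 1849 right-end barcoded transposon variants. Cells grew on plates with 0.1 mM IPTG at 37°C for 18 h. Relative integration efficiency was derived from Illumina reads of genomic integration junctions against input plasmids, as a log-transformed output/input barcode fold change normalised to reference barcodes.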

[2] = tested on: VchCAST RNA-guided transposition machinery (E. coli BL21(DE3) host, lacZ target); test: relative integration efficiency (T-RL orientation) vs wild-type transposon end (log2 (normalized fold change)); transposon end mutated: right end (5 bp flank + 75 bp right end); higher = more efficient transposition
Method in brief: as §1

| Sequence | relative integration efficiency (log2) [1] | relative integration efficiency (log2) [2] |
| --- | --- | --- |
| ACATTTGTTGATACAACCATAAAATGATAATTACACCCATAAATTGATAATTATCACACCCATAAATTGATATTGCCTCTGATAACTTCGTATAGTATACATTATACGAAGTTATTCGCACCGACAC | 2.27 ± 0.2 | -2.13 ± 0.21 |
| ACATTTGTTGATACAACCATAAAATGATAATTACACCCATAAATTGATAATTATCACACCCATAAATTGATATTGCCTCTGATAACTTCGTATAGTATACCTTATACGAAGTTATTCGCACCGACAC | 1.034 ± 0.0024 | -0.958 ± 0.26 |
| ACATTTGTTGATACAACCATAAAATGATAATTACACCCATAAATTGATAATTATCACACCCATAAATTGATATTGCCTCTGATAACTTGGTATAGCATACATTATACGAACGGTATCGCACCGACAC | 0.663 ± 0.24 | -0.811 ± 0.36 |
| ACATTTGTTGATACAACCATAAAATGATAATTACACCCATAAATTGATAATTATCACACCCATAAATTGATATTGCCTCTGATAGTACTGCGCGCCTGAATTCATCGTTAAATCGTCGCACCGACAC | 0.249 ± 0.17 | 0.0579 ± 0.2 |
| ACATTTGTTGATACAACCATAAAATGATAATTACACCCATAAATTGATAATTATCACACCCATAAATTGATATTGCCTCTGATCAAAATGTGAGCGAGTAACAACCTAGTCAGACCAGCACCGACAC | -0.0747 ± 0.17 | -0.102 ± 0.08 |
| ACATTTGTTGATACAACCATAAAATGATAATTACACCCATAAATTGATAATTATCACACCCATAAATTGATATTGCCTCTGATCAAATTGTGAGCGGATAACAATTTAGTCAGACCAGCACCGACAC | 0.00708 ± 0.62 | -0.232 ± 0.12 |
| ACATTTGTTGATACAACCATAAAATGATAATTACACCCATAAATTGATAATTATCACACCCATAAATTGATATTGCCTCTGATCAACCATAAAATGATAATTACATAGTCAGACCAAGCACCGACAC | 0.401 ± 0.26 | 0.875 ± 0.21 |
| ACATTTGTTGATACAACCATAAAATGATAATTACACCCATAAATTGATAATTATCACACCCATAAATTGATATTGCCTCTGATCAATATGTAACCAAAAGTAAAATAGTCAGACCAAGCACCGACAC | 0.023 ± 0.042 | -0.295 ± 0.29 |
| ACATTTGTTGATACAACCATAAAATGATAATTACACCCATAAATTGATAATTATCACACCCATAAATTGATATTGCCTCTGATCACAACCATAAAATGATAATTATAGTCAGACCAAGCACCGACAC | -0.402 ± 0.11 | -0.0149 ± 0.23 |
| ACATTTGTTGATACAACCATAAAATGATAATTACACCCATAAATTGATAATTATCACACCCATAAATTGATATTGCCTCTGATCAGGAATTGTGAGCGGATAACAATTTAGTCAGACGCACCGACAC | 0.397 ± 0.067 | 0.138 ± 0.16 |
| ACATTTGTTGATACAACCATAAAATGATAATTACACCCATAAATTGATAATTATCACACCCATAAATTGATATTGCCTCTGATCAGGCAGTGAGCGCAACGCAATTTAGTCAGACCAGCACCGACAC | -0.287 ± 0.16 | -0.283 ± 0.16 |
| ACATTTGTTGATACAACCATAAAATGATAATTACACCCATAAATTGATAATTATCACACCCATAAATTGATATTGCCTCTGATCATAAATATATAAATTAATTATTAAATTAGTCAGGCACCGACAC | 1.54 ± 0.18 | 1.34 ± 0.21 |
| ACATTTGTTGATACAACCATAAAATGATAATTACACCCATAAATTGATAATTATCACACCCATAAATTGATATTGCCTCTGATCATAATTGTTATCCGCTCACAATTCCAGTCAGACGCACCGACAC | 0.885 ± 0.33 | -0.659 ± 0.41 |
| ACATTTGTTGATACAACCATAAAATGATAATTACACCCATAAATTGATAATTATCACACCCATAAATTGATATTGCCTCTGATCATACAACCATAAAATGATAATTAGTCAGACCAAGCACCGACAC | -0.751 ± 0.19 | 0.403 ± 0.3 |
| ACATTTGTTGATACAACCATAAAATGATAATTACACCCATAAATTGATAATTATCACACCCATAAATTGATATTGCCTCTGATCATAGCAACCATAAAATGATAATTATCAGACCAAGCACCGACAC | -0.337 ± 0.55 | -0.108 ± 0.26 |
| ACATTTGTTGATACAACCATAAAATGATAATTACACCCATAAATTGATAATTATCACACCCATAAATTGATATTGCCTCTGATCATAGCGTACTAGTTAACTAGTTCGAGTCAGACCGCACCGACAC | -0.453 ± 0.046 | -0.142 ± 0.091 |
| ACATTTGTTGATACAACCATAAAATGATAATTACACCCATAAATTGATAATTATCACACCCATAAATTGATATTGCCTCTGATCATAGTCAAACTGTATTTATATACAGTTGGACCAGCACCGACAC | 0.414 ± 0.18 | 0.00825 ± 0.2 |
| ACATTTGTTGATACAACCATAAAATGATAATTACACCCATAAATTGATAATTATCACACCCATAAATTGATATTGCCTCTGATCATAGTCAACCATAAAATGATAATTACAGACCAAGCACCGACAC | -0.792 ± 0.34 | -0.223 ± 0.2 |
